The assay concerns the target Tocilizumab (IgG1). The assay can be described thus: SPR (Biacore), tocilizumab immobilised via EDC/NHS on CM5 chip, receptor as analyte.

Turning to “Deglycosylated D2 (Man9 deglycosylated using EndoH) (receptor)”, the Kd turned out to be 17.6 nM.

For the substance “Man9 (Pichia-produced FcγRIIIa domain 2 ligand with Mannose 9 glycosylation) (receptor)”, the Kd is 0.478 nM.

By Kd is commonly meant the equilibrium constant for the complex coming apart.

(Values after patent publication US20250223314A1.)
